How the values were obtained:
CTF18-RFC;p261Nexo- = CTF18-RFC;p261Nexo- (human;human, UniProt Q8WVB6;Q9BVC3;P0CG13;P35250;P40938;P35249;P40937;Q07864 …, |D275A); test: photo-crosslinking
CTF18-RFC;PCNA = CTF18-RFC;PCNA (human;human, UniProt Q8WVB6;Q9BVC3;P0CG13;P35250;P40938;P35249;P40937;P12004 …, |); test: EMSA
CTF18-RFC = CTF18-RFC (human, UniProt Q8WVB6;Q9BVC3;P0CG13;P35250;P40938;P35249;P40937 …); test: EMSA

Row | Binder | binding signal (CTF18-RFC;p261Nexo-) | binding result (CTF18-RFC;PCNA) | binding result (CTF18-RFC)
1 | APB-Junction (dsDNA, APB on phosphorothioate dCMP at primer nt 33) DNA 1: TGAGGTTCAGCAAGGTGATGCTTTAGATTTTTC DNA 2: AGGCGGTCAGTATTAACACCGCCTGCAACAGTGCCACGCTGAGAGCCAGCAGCAAATGAAAAATCTAAAGCATCACCTTGCTGAACCTCA | ~3 fold p261Nexo- crosslink vs alone (CTF18 5-fold) | – | –
2 | dd-Junction (dsDNA, 3' ddAMP (primer nt 34); APB on S-dCMP at primer nt 33) DNA 1: TGAGGTTCAGCAAGGTGATGCTTTAGATTTTTCA DNA 2: AGGCGGTCAGTATTAACACCGCCTGCAACAGTGCCACGCTGAGAGCCAGCAGCAAATGAAAAATCTAAAGCATCACCTTGCTGAACCTCA | – | no binding | no binding
